Assay results published in US20160115500A1 (University of California, published 2016).
Residue numbers refer to the chain shown, from its start. Names may count otherwise.

T1: GAL4 activation domain fusion (ACT) to HAB1 (UniProt Q9CAJ0 23-511, limits assumed)
T1 construct: pACT-HAB1 fusion in yeast reporter strains; also called pACT-HAB1
T1 sequence (looked up): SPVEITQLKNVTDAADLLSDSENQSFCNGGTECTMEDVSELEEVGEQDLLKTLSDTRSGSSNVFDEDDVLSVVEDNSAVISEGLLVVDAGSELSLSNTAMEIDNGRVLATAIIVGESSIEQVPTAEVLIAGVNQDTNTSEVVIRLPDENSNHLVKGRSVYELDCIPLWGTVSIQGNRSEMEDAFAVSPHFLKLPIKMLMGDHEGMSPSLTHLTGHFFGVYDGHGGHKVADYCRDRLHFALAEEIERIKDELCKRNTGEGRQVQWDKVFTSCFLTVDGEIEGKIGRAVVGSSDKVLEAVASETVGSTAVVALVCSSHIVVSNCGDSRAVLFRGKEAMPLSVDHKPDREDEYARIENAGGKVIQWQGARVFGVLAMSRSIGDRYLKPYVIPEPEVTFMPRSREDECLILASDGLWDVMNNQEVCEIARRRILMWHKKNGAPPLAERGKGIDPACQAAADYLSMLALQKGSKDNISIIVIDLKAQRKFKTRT

B1: PYR1^K59R,F108A (receptor, not shown: small tags and cut ends)
chain: MPSELTPEERSELKNSIAEFHTYQLDPGSCSSLHAQRIHAPPELVWSIVRRFDKPQTYRHFIKSCSVEQNFEMRVGCTRDVIVISGLPANTSTERLDILDDERRVTGASIIGGEHRLTNYKSVTTVHRFEKENRIWTVVLESYVVDMPEGNSEDDTRMFADTVVKLNLQKLATVAEAMARNSGDGSGSQVT
notes: pBD-PYR1 fusion in yeast
B2: PYR1^K59R,E94A (receptor, not shown: small tags and cut ends)
chain: B1 chain with E94A, A108F
notes: pBD-PYR1 fusion in yeast
B3: PYR1^K59R,V81I,F108A,S122G,A160V (receptor)
chain: B1 chain with V81I, S122G, A160V
notes: pBD-PYR1 fusion in yeast
B4: PYR1^K59R,N167C (receptor, not shown: small tags and cut ends)
chain: B1 chain with A108F, N167C
notes: pBD-PYR1 fusion in yeast
B5: PYR1^K59R,Y120A (receptor, not shown: small tags and cut ends)
chain: B1 chain with A108F, Y120A
notes: pBD-PYR1 fusion in yeast
B6: PYR1^K59R,F108A,S122G,A160V (receptor)
chain: B1 chain with S122G, A160V
notes: pBD-PYR1 fusion in yeast
B7: PYR1^K59R,V164T (receptor, not shown: small tags and cut ends)
chain: B1 chain with A108F, V164T
notes: pBD-PYR1 fusion in yeast
B8: PYR1^K59R,F108A,S122G,L87A (receptor)
chain: B1 chain with L87A, S122G
notes: pBD-PYR1 fusion in yeast
B9: PYR1^K59R,F108Q (receptor, not shown: small tags and cut ends)
chain: B1 chain with A108Q
notes: pBD-PYR1 fusion in yeast
B10: PYR1^Y58H,K59R,F108A,S122G (receptor)
chain: B1 chain with Y58H, S122G
notes: pBD-PYR1 fusion in yeast
B11: PYR1^K59R,F108A,S122G,V81I (receptor, not shown: small tags and cut ends)
chain: B1 chain with V81I, S122G
notes: pBD-PYR1 fusion in yeast
B12: PYR1^K59R,S92F (receptor, not shown: small tags and cut ends)
chain: B1 chain with S92F, A108F
notes: pBD-PYR1 fusion in yeast
B13: PYR1^K59R,Y120M (receptor, not shown: small tags and cut ends)
chain: B1 chain with A108F, Y120M
notes: pBD-PYR1 fusion in yeast
B14: PYR1^Y58H,K59R,V81I,F108A,S122G,F159L (receptor, not shown: small tags and cut ends)
chain: B1 chain with Y58H, V81I, S122G, F159L
notes: pBD-PYR1 fusion in yeast; also called PYR1^MANDI; pBD-PYR1^MANDI
B15: PYR1^K59R,S122G (receptor, not shown: small tags and cut ends)
chain: B1 chain with A108F, S122G
notes: pBD-PYR1 fusion in yeast
B16: PYR1^K59R,L87P (receptor, not shown: small tags and cut ends)
chain: B1 chain with L87P, A108F
notes: pBD-PYR1 fusion in yeast
B17: PYR1^K59R,F108Q,S122G (receptor, not shown: small tags and cut ends)
chain: B1 chain with A108Q, S122G
notes: pBD-PYR1 fusion in yeast
B18: PYR1^K59R,F108E (receptor, not shown: small tags and cut ends)
chain: B1 chain with A108E
notes: pBD-PYR1 fusion in yeast
B19: PYR1^K59R,A89C,A160G (receptor, not shown: small tags and cut ends)
chain: B1 chain with A89C, A108F, A160G
notes: pBD-PYR1 fusion in yeast
B20: PYR1^K59R,F108A,S122G,F159M (receptor)
chain: B1 chain with S122G, F159M
notes: pBD-PYR1 fusion in yeast
B21: PYR1^K59R,F108N (receptor, not shown: small tags and cut ends)
chain: B1 chain with A108N
notes: pBD-PYR1 fusion in yeast
B22: PYR1^K59R,V81Y (receptor, not shown: small tags and cut ends)
chain: B1 chain with V81Y, A108F
notes: pBD-PYR1 fusion in yeast
B23: PYR1^K59R,F108A,S122G (receptor, not shown: small tags and cut ends)
chain: B1 chain with S122G
notes: pBD-PYR1 fusion in yeast; also called pBD-PYR1^K59R,F108A,S122G
B24: PYR1^K59R,F108L (receptor)
chain: B1 chain with A108L
notes: pBD-PYR1 fusion in yeast
B25: PYR1^K59R,N167H (receptor, not shown: small tags and cut ends)
chain: B1 chain with A108F, N167H
notes: pBD-PYR1 fusion in yeast
B26: PYR1^Y58H,K59R,V83L,F108A,S122G (receptor, not shown: small tags and cut ends)
chain: B1 chain with Y58H, V83L, S122G
notes: pBD-PYR1 fusion in yeast

What was measured:
[1] = target: T1, GAL4 activation domain fusion (ACT) to …; experiment: yeast two-hybrid, X-gal; lowest mandipropamid concentration giving signal
[2] = target: T1, GAL4 activation domain fusion (ACT) to …; experiment: yeast two-hybrid, X-gal; lowest fludioxonil concentration giving signal
[3] = target: T1, GAL4 activation domain fusion (ACT) to …; experiment: yeast two-hybrid, X-gal; lowest dichlobenil concentration giving signal
[4] = target: T1, GAL4 activation domain fusion (ACT) to …; experiment: yeast two-hybrid, X-gal; lowest benzothiadiazole concentration giving signal

Binder | Threshold [1] [µM] | Threshold [2] [µM] | other results
B1 | 100 |  | 
B2 |  | 1 | 
B3 | 0.05 |  | 
B4 |  | 100 | Threshold [3]: 100 µM
B5 |  | 100 | 
B6 | 0.25 |  | 
B7 |  |  | Threshold [3]: 100 µM
B8 | 0.25 |  | 
B9 | 100 |  | 
B10 | 0.25 |  | 
B11 | 0.25 |  | 
B12 |  | 100 | 
B13 |  | 100 | 
B14 | 0.002 |  | 
B15 | 100 |  | 
B16 |  | 100 | Threshold [3]: 100 µM
B17 | 10 |  | 
B18 | 100 |  | Threshold [3]: 100 µM
B19 |  |  | Threshold [4]: 5 µM
B20 | 0.25 |  | 
B21 | 100 |  | 
B22 |  | 100 | 
B23 | 1 |  | 
B24 | 100 | 100 | 
B25 |  | 100 | 
B26 | 0.01 |  | 
